The record followed here is article PMC6600395, “p53 Binds Preferentially to Non-B DNA Structures Formed by the Pyrimidine-Rich Strands of GAA·TTC Trinucleotide Repeats Associated with Friedreich’s Ataxia”.

The target in data set [1] is T1, p53CD (core domain) (human, UniProt P04637 94-312). The experiment in a line: EMSA; 50 ng pBSK/SmaI competitor; EMSA: 5 mM Tris-HCl pH 7.6, 0.5 mM EDTA, 0.5 mM DTT, 0.01% Triton X-100, 50 mM KCl, 15 min on ice (agarose 4 °C), pBSK/SmaI competitor in PAGE EMSA; ELISA: same without EDTA, 4 °C, 20 min. Conditions: protein: recombinant; tags: GST (GST-p53CD, pGEX-4T); chain copies: 4; label: 32P (EMSA); biotin (ELISA); blunt. In general terms: In EMSA bound probe runs differently from free probe, usually more slowly.
T1 sequence (P04637 94-312): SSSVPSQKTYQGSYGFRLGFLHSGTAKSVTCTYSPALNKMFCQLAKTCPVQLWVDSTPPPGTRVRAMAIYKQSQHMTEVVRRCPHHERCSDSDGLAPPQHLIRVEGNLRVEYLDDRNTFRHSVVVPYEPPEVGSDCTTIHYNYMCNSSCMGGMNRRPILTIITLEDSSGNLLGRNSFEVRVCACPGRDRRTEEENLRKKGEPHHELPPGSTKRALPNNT

Data set [2] deals with T2, p53 (wild type, full length) (human, UniProt P04637 1-393). The experiment in a line: EMSA; strongest binder; 75 ng pBSK/SmaI competitor; EMSA: 5 mM Tris-HCl pH 7.6, 0.5 mM EDTA, 0.5 mM DTT, 0.01% Triton X-100, 50 mM KCl, 15 min on ice (agarose 4 °C), pBSK/SmaI competitor in PAGE EMSA; ELISA: same without EDTA, 4 °C, 20 min. Particulars: protein: recombinant; tags: none stated for pT7-7wtp53 (Methods 3.3 says purified via GST tag); chain copies: 4; label: 32P (EMSA); biotin (ELISA); blunt.
T2 sequence (P04637 whole entry): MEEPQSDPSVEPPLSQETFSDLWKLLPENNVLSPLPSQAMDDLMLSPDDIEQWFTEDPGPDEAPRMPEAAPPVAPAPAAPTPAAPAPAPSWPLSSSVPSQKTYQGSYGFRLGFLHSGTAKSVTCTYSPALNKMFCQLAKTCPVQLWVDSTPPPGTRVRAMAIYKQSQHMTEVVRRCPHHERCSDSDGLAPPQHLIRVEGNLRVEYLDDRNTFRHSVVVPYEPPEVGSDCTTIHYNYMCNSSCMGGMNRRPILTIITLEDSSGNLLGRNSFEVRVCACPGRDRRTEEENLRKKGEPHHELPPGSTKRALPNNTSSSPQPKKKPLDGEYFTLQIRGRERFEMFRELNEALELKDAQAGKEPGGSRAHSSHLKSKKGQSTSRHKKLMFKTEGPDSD

In data set [3] the target is p53CT (C-terminal segment) (human, UniProt P04637 320-393). The experiment in a line: EMSA; 50 ng pBSK/SmaI competitor; EMSA: 5 mM Tris-HCl pH 7.6, 0.5 mM EDTA, 0.5 mM DTT, 0.01% Triton X-100, 50 mM KCl, 15 min on ice (agarose 4 °C), pBSK/SmaI competitor in PAGE EMSA; ELISA: same without EDTA, 4 °C, 20 min. Particulars: protein: recombinant, tags: GST (GST-p53CT, pGEX-2TK), chain copies: 4, label: 5'-32P on Lock-F (EMSA), 3'-biotin on Lock-F (ELISA), lock clamp, 3' overhang 3 nt on lock strand.
Sequence of p53CT (C-terminal segment) (P04637 320-393): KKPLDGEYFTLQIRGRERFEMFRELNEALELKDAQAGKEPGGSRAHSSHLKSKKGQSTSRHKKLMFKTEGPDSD

Data set [4] concerns the target T2, p53 (wild type, full length). The experiment in a line: EMSA; 75 ng pBSK/SmaI competitor; EMSA: 5 mM Tris-HCl pH 7.6, 0.5 mM EDTA, 0.5 mM DTT, 0.01% Triton X-100, 50 mM KCl, 15 min on ice (agarose 4 °C), pBSK/SmaI competitor in PAGE EMSA; ELISA: same without EDTA, 4 °C, 20 min. Conditions: protein: recombinant, tags: none stated for pT7-7wtp53 (Methods 3.3 says purified via GST tag), chain copies: 4, label: 5'-32P on Lock-F (EMSA), 3'-biotin on Lock-F (ELISA), lock clamp, 3' overhang 3 nt on lock strand.

Data set [5] has as its target T1, p53CD (core domain). The experiment in a line: EMSA; no stable complex; 50 ng pBSK/SmaI; EMSA: 5 mM Tris-HCl pH 7.6, 0.5 mM EDTA, 0.5 mM DTT, 0.01% Triton X-100, 50 mM KCl, 15 min on ice (agarose 4 °C), pBSK/SmaI competitor in PAGE EMSA; ELISA: same without EDTA, 4 °C, 20 min. Particulars: protein: recombinant, tags: GST (GST-p53CD, pGEX-4T), label: 5'-32P on Lock-F (EMSA), 3'-biotin on Lock-F (ELISA), lock clamp, 3' overhang 3 nt on lock strand.

The target in data set [6] is T2, p53 (wild type, full length). The experiment in a line: EMSA; stronger than TTCNB and FXN-ANB; 50 ng pBSK/SmaI; EMSA: 5 mM Tris-HCl pH 7.6, 0.5 mM EDTA, 0.5 mM DTT, 0.01% Triton X-100, 50 mM KCl, 15 min on ice (agarose 4 °C), pBSK/SmaI competitor in PAGE EMSA; ELISA: same without EDTA, 4 °C, 20 min. Conditions: protein: recombinant; tags: none stated for pT7-7wtp53 (Methods 3.3 says purified via GST tag); chain copies: 4; label: 5'-32P on Lock-F; lock clamp, Py-rich loop in strand 1; 3' overhang 3 nt on lock strand.

For data set [7] the target is unchanged. The experiment in a line: ELISA; Kd only in figure; EMSA: 5 mM Tris-HCl pH 7.6, 0.5 mM EDTA, 0.5 mM DTT, 0.01% Triton X-100, 50 mM KCl, 15 min on ice (agarose 4 °C), pBSK/SmaI competitor in PAGE EMSA; ELISA: same without EDTA, 4 °C, 20 min. Particulars: protein: recombinant; tags: none stated for pT7-7wtp53 (Methods 3.3 says purified via GST tag); chain copies: 4; label: 5'-32P on Lock-F (EMSA); 3'-biotin on Lock-F (ELISA); lock clamp, T loop in strand 1; 3' overhang 3 nt on lock strand. In general terms: ELISA stands for enzyme-linked immunosorbent assay.

Where [8] appears, read: unpaired (TTC)11 loop in strand 1.

B1: CON (p53CON) (dsDNA)
DNA 1: GACGGTATCGATAAGAGACATGCCTAGACATGCCTCTTGATATCGAATTC
DNA 2: GAATTCGATATCAAGAGGCATGTCTAGGCATGTCTCTTATCGATACCGTC
Consider B1, for which the binding result (with p53CD (core domain) [1]; in data set [2]) was “binds” each time.

B2: TTCNB (structured_DNA)
DNA 1: GGGGCCTTAGGTATTCTTCTTCTTCTTCTTCTTCTTCTTCTTCTTCATGGTACCGCGG
DNA 2: CCGCGGTACCATTACCTAAGGCCCCAAC
In the case of B2, the binding result in data set [3] (setting [8]) is “binds”; in data set [4] (setting [8]), “binds”; with p53CD (core domain) [5] (setting [8]), “no binding”.

B3: FXN-TNB (structured_DNA)
DNA 1: GGGGCCTTAGGTATTTTCTTTATTTTCTTCTTCTTCTTCTTCTTTTTTTTTTTTTTTTGTATTTTTTATGGTACCGCGG
DNA 2: CCGCGGTACCATTACCTAAGGCCCCAAC
Take B3: the binding result in data set [6] is listed as “binds”.

B4: CTGNB (structured_DNA)
DNA 1: GGGGCCTTAGGTACTGCTGCTGCTGCTGCTGCTGCTGCTGCTGCTGATGGTACCGCGG
DNA 2: CCGCGGTACCATTACCTAAGGCCCCAAC
Regarding B4, the figures for the binding result (in data set [3] ((CTG)11 hairpin in strand 1); in data set [4] ((CTG)11 hairpin in strand 1); with p53CD (core domain) [5] ((CTG)11 hairpin in strand 1)) were “binds”, “binds” and “no binding”, respectively.

B5: TNB (structured_DNA)
DNA 1: GGGGCCTTAGGTATTTTTTTTTTTTTTTTTTTTTTTTTTTTTTTTTATGGTACCGCGG
DNA 2: CCGCGGTACCATTACCTAAGGCCCCAAC
Turning to B5, the figures for the binding result (in data set [7]; in data set [3] (T loop in strand 1); with p53CD (core domain) [5] (T loop in strand 1)) were “binds”, “binds” and “no binding”, respectively.
